Experimental data published in the DeepSol protein solubility set.

test: soluble on expression in E. coli; label from the status in PepcDB or PDB records

Row | Sequence | soluble on expression in E. coli
1 | MAHHHHHHMQLQPPKPIIKDFNVGISPLVQTRLPLVFAQGEYPPPMQDVLLVGISLKADFSAVWDWNTKHMYVACIGRYHTKSNMTVGGVNLQKTHDVTIFDKVLRSKEEAANWTLDNAKKYALENEELGSLAGAAVELMILYHPMRHYGYSPYYTVQPGKNPVMFQLPTAYEKRTEEDDKNAMCSRGYA | not soluble
2 | MGSDKIHHHHHHMGAGELLQDWRVHALRIEDEVSRVVIGQPQTIRLITVALFARGHVLLEGGVGVGKTTVLRAFARVVGGEFERVEGTIDLMPGDLVYHTYVDAEGRPRIDPGPLLRHGERLTTFFFNEINRARPQVQSLLLRAMAERSVWAFDREYRFPHMTVFADRNKVEKEETFELASAARDRFLFELGMPTPTEPDVRRSLVFDAAFHDVDSLLARLPPAIVQWEQLNQVGAAIQESVQSSETIERYVLDIWQATETPQRFGIALDGVDMDRLILAGASPRGMSALLRAARVVAWLAGRSHLVPEDIHAVLMPALGHRVFFTPIYELRRQELAEALMTQIMNRLAVP | not soluble
3 | MGSDKIHHHHHHMGNAAASTRAICHRRCSTYPRMNDFQSLSTEESPAPAGTNPAVNPIARIHGEPVTEIPSDLYIPPDALEVFLDTFQGPLDLLLYLIRKHNLDVLDIAMAELTRQYLAYIEMMRANKLELAAEYLLMAAVLIEIKSRMLLPKPVAKGNEDEVDPRAELVRRLLEYEQMKVAGQKLNKLPQAERDFALTNVWIEQKVIERLPEVNADDLRNAWLILMARLNVNRRHNITREELSVREHMTRILRHVQGHHFVEFSDLFNAAAGAAELVVTFLALLELVKERQVEVSQPSAFGMIYVRPISVLTTV | not soluble
4 | MEQNIATAQVSVARPNWDKSRLVSRIVHLGCGAFHRAHQALFTHHLLEKSDSDWGICEVNLMPGNDARLIANLKAQNLLYTVAERGAESTELKIIGSMKEALHPEFDGHAGILAAMARPETAIVSLTVTEKGYCTDPASGELDVNNPLIQNDLAHPQQPKSAIGYIVEALNMRREQGLKAFTVLSCDNVRENGHVAKAAVLGLAKARDAALAAWIADNVTFPCTMVDRIVPAATEETLQLVADQLGVYDPCAIACEPFRQWVIEDNFVNGRPDWDTVGAQFVADVVPFEMMKLRMLNGSHSFLAYLGYLGGYDTIADTMTNPAYRRAALALMLDEQAPTLSMPEGTDLEGYANLLIARFTNPSLKHRTWQIAMDGSQKLPQRLLDPVRLHLQQGDDYRRLTLGVAGWMRYVGGVDEQGKTIDVVDPLLAQYQAIHQQYQTPEERVRGLLAIESIFGNDLPKNHEFVQAVTDAYQQLLQNGAKATVEALAK | not soluble
5 | MGQTTEAQSLKYGEREIENGELITFPNPRPGRRYTINITLPEYTCKCPFSGYPDFATIYITYVPDQKVVELKAIKLYINSYRDRYISHEEAVNQILDDLVAACDPLEMTIKGDYQPRGNVHTVIEVTHTKEQA | not soluble
6 | VLSAIGIVPSAPVLVPELAGAAAAELADLGAAVIAAASLLPKSWIAVGTGRADDVVRPTDVGTFAGFGADVRVGLAPQDGDGVAVPVELPLCALLTAWVRGQARPEARAQVHVYASDHGSDAAVARGRQLRADIDREPDPIGVLVVADGLNTLTPRAPGGYDPDGAGMQRALDDALASGDLAVLTRLPAQVLGRVAFQVLAGLAEPGPRSAKEFYRGAPHGVGYFAGVWQP | not soluble
7 | MSLSGKLTYKELIIEVLKQTKKPLNVSEIWQKALEKGLDKKLSSIGQTPTQTIWNRLLTDKINFLKTSIKPTTFWLKERENELLKLDNKNEITNEKQEKNKFHERDLHPLLVKFLYENLDFNLNCKTIYHEQSKKGKGGEDKWNYPDIVGVYFPYDDYEKETITLLENIKQNSYKLFSFELKIALNFSNLKECYFQAVSNSSWANEGYLVVLQEIDSEVLSELRRLNQSFGIGVIKLEKDISNSQILISAKEKELDIQTLNMLINKNPNFKEFIDDINKQIKVGKEAKIQANFDEIKSDEEMEKYLKEKCILEKEGHHHHHH | soluble
8 | MSLRKDLSEKVLIADGAMGTLLYSYGVDRSFEELNLSHPEDIVAIHKAYIGAGADIIQTNTYGANYIKLARYGLEDEVKRINQAAIRLAKEAARGTGTYIFGTIGGINGAVDARLPAAPLEEIKRSFREQLYCFLLDGVDAILLETYYDLDELKTVLKILRETTDLPVVANVSMHEPGILQNGKKLPDALEELIALGADVVGINCRLGPYHMARALETVPLYDNAYLAVYPNASLPEMQEGKVIYQSDTDYFEHYGEVFRQEGARIIGGCCGTTPDHIRALRKGLETTKPILEKEVRPILELVPEEVEDVDSGERLLDKVKERLTILVELDPPRTFDTTKFFEGAQALDEAGVDAITISDNSLATPRISNMALASILKHEYGIKPLIHLTTRDHNLVGMHSHVMGFHKLGLHDVLAITGDPTKVGDFPGASSVFDLRSVELVQLIKKFNDGISYTGKSLKEKARFHVGAAFNPNVLNLEKAVRLIERKVEYGADYIITQPIYDVNKAILLKEALQKANIDVPLFIGVMPLLSSRNAEFLHNEVPGIRLTDDVRERMREAEEHGHANEEGMAIARELVDAICEHFQGIYIITPFLRYDLSIELAKYAQNKQQVQIGSKEGHHHHHH | soluble
9 | MKKEHSPKNKVRHFASVEHLNPEAVAAFVDNELSPAAAHRAKIHLVHCAECREEIHRQRRAADRLRDGNNSDMRPSSDLIAKLQSIAACCPDGPTAEEVPSSPQSLLDKLDGVARNIYKTTKTLREARNEALRQYDR | not soluble
10 | MAHHHHHHLPALKLALEYIVPCMNKHGICVVDDFLGKETGQQIGDEVRALHDTGKFTDGQLVSQKSDSSKDIRGDKITWIEGKEPGCETIGLLMSSMDDLIRHCNGKLGSYKINGRTKAMVACYPGNGTGYVRHVDNPNGDGRCVTCIYYLNKDWDAKVSGGILRIFPEGKAQFADIEPKFDRLLFFWSDRRNPHEVQPAYATRYAITVWYFDADERARAKVKYLTGEKGVRVELNKPSDSVGKDVF | soluble
11 | MAHHHHHHMYQGRSQQPLWTPPPNFSQVETGIYRSAYPTLASVPFLHHIGIKTIVLLSIELLPVPVVRAISEGDVVAGTTSVSDDVHAWKDNECIKWPIRIVSTADLSEWMNEYVCAKDDFAVSSVQRALDFALQPDFQPVLFTCPTGELQTSVIVGCMRRHQGWSLAAVLAECELFVNVTGGVRQSVMNFIEQWDPDEHPVREEDIAKRKRELLLRDPSLSYSVKRHRRTVTHSASDPDSEYDDPLAMGTSRLGQKGTAGNSAGMGLSLSPYKSSGFDRSTLSSTRVGGDELGLSHSSHVVIKLASWYTAAMKRRAAAAEAIVAARAKVRAPSDPLPEPHERYFGVLNPPALDERSTFTKKSIVQDLD | not soluble
12 | MGSDKIHHHHHHMDGRGLKAYATPIRKFWVVLLQQRRMAMAENEKYLDWAREVLHTEAEGLREIAAELDENFVLAADALLHCKGRVVITGMGKSGHIGRKMAATMASTGTPAFFVHPAEAAHGDLGMIVDNDVVAAISNSGESDEITAIIPALKRKDITLVCITARPDSTMARHADIHITASVSQEACPLGLAPTTSTTAVMALGDALAVVLLRARAFTPDDFALIHPAGSLGKRLLLRVADIMHKGGGLPAVRLGTPLKGAIVSMSEKGLGMLAVTDGQGCLKGVFTDGDLRRLFQECDNFTGLSIDEVMHTHPKTISAERLATEALKVMQANHVNGLLVTDADGVLTGALNMHDLLAARIV | not soluble
13 | MAHHHHHHMSWRARFTPCVGSLTVWLNPKDPNCFGVRNWWRNNLPELQLLNPFCTFTIQELSFGEPHMYVNYTPTDQRMIRLAGATEEECEEIMEACITYGMNHAIIERPRTDDGGDLVNQPAITSFGYTESFTAKLEVAPPADIGQKTTEGVDDPGQKPRLYPRNVGCKLMP | not soluble
14 | SLSKKATYPKVMCTQHPDSASKYISTQEEPGEAIEAAVVFGCDEYMPDYEGKATPYHQNVQIVSRFIEETDLIPGKDIFITPRAPSAAQENRFRQLMVMMSIAEANHGALEYSDVQAINEFVHPMTGTVGEILDAQQHMVDVGELAKKEFGVAMEVPRIIPLIEDAPALLHAKELAENTLLSWEKRFGAAPEKFRVFLGKSDSALSFGHVASTLSCKYAISGISELDLELDTSTGIIFGAGTLPFRGHLSLKNAENFFREYRGIGTITLQSAVRYSHDKGEAEALVRLAEERLPESPEIYSGEEKEEIVNLIGIFGARYNRIIREMSCTINQLAGLLPQQRDRLMHKGTGGYSRNVPDISGLVCLCRKDVGKELSASMPAEDLNLPRAIKFTGALYSIGLPPEFIGTGTALEEAREKLGEEACERLLKKYFPSLASDLSFASGYLDLNVASRFLPEACLKEIRKDIEVLRDTFSLKVQPEPSYRILLEMMQPDLLQAGTKGNCMDEEVSQLVCSTLTKMGKIRKALG | not soluble
15 | SSESESGGDFHEMREPRIEKVVVHMGIGHGGRDLANAEDILGEITGQMPVRTKAKRTVGEFDIREGDPIGAKVTLRDEMAEEFLQTALPLAELATSQFDDTGNFSFGVEEHTEFPSQEYDPSIGIYGLDVTVNLVRPGYRVAKRDKASRSIPTKHRLNPADAVAFIESTYDVEVSE | soluble
16 | RKRNRIPLRCTICRKRKVKCDKLRPHCQQCTKTGVAHLCHYMEQTWAEEAEKELLKDNELKKLRERVKSLEKTLSKVHSSP | soluble
17 | MGHHHHHHENLYFQSHLYFQSHDCGSAVTERPKAAPIPTVNPEGKLKKEPNMFSPTLMLPGLGTLSSSQMYPACSQMPTQPAQLGPGKQDTLHSCWQQLYSPSPSASSLLSLHSHSSFTAEVPQPGAQGSSSLPAYNPLNWPDEKNSSFYRNFGNTHGMGAALVSAAGMQSVSSSSIVQGTHQASATTASIMTMPRTPGEVPFLRQQVGYRS | not soluble
18 | LKDVLNILLMDEISKLKDFLSNLDYIKPKVNIEEEIIEIRKEDIINALKLFKGKYEIEVDKIPKAVYVYLVKKNILFLYPQRGTLKPQSFLVWNAIKRVL | soluble
19 | MGAIEDIYEDLETDVPEEEFREAVEEKVEQMGGLADEETAAMLLAHELNENEVNAIADIEPGMDEVKFLAKVMAIGDLKTFERDDEDEDGRVINVEAADESGSLRLAFWDGQAVDIDEGKLEVGDVLRVKGRPKDGYNGLEVSVDKAEPDEDATIDVEPGAGSSIDALTMGQSDVTLRGLVLDTDSIRTFDRDDGSEGRVSNLTLGDETGRIRVTLWDDRADRADELDAGAAVEIIDGYVRERDGSLELHVGDQGAVDEVEDDVAFEPDADPIAEVELEETADIAGVVRSADPKRTFDRDDGSEGQVRNVRIQDATGDIRVALWGDKADKDIAPGDEVLAADVEIQDGWQDDKEASASWNSTIVVLDDGADLATGGAGGGASAETTDAEHAGLSSFGDEGDDTDADSSGNEAAAVSAGTGDTSPDGGAQSAGQQVEFTGTVVQTGDPVVLDDGEQTMSVETGERVQLGQEITVRGELRDDRLHAEDVFLEHHHHHH | not soluble
20 | MKEKIPFYNEKEFHDMMKKTKKGTFSGWYIIDKDNKSVEFSGNFNRQFKLNKPVIPVNTEYVTRKEFNEYKDSNDQRLTKIETTLAAQGEQIRIQGEQIKELQIEQKAQGETLKLILQTLQKMSDRLNKMDVRLDKLESKLEHHHHHH | not soluble
21 | GPGSMASHAEGRLLRRSVPYVESWIAELTPKPVAPAAGAAPAPKGKAKGGTASTGTENATPMSRCCFAVGKVLEVSRHPESEKLYIEKIDLGAELNMLSNNEPRTILSGLQEFVKEEDFVNRLVLVIANLEPRKIGGIPSAGMVLCASTGEDPHDPASAGQGERKVVLLDIPEGTAVGERVVFEGHDMPYEPVLKKKLAKNFEEVMKDVRSSADGEVCWQGKPFQTSAGVIKASLCNARIS | soluble
